The target in this experiment is pre-formed Aβ oligomers (Aβ42) (UniProt P05067). Put plainly: fluorescence correlation spectroscopy.

Substance “pre-formed Aβ oligomers (Aβ42) (from UniProt P05067 672-713) (complex)” gave a fraction of fluorescently labeled Aβ in oligomers of 59%.
